Experimental data: patent US20200239578A1 (Eli Lilly, published 2020)
Substitutions are numbered along the chain they refer to.

How the values were obtained:
[1] = biological target: human BTLA on human cells (PBMCs, Ramos.2G6.4C10 B cell line, primary B cells) (human, UniProt Q7Z6A9 31-289); test: cell-based or functional assay
[2] = biological target: T1, rat BTLA protein (immobilised on the Biacore chip) (rat, UniProt Q6PNM1 30-183, limits assumed); test: SPR (Biacore 3000), BTLA amine-coupled to the chip, antibody flowed, 25 C, 1:1 Langmuir fit
T1 sequence (looked up): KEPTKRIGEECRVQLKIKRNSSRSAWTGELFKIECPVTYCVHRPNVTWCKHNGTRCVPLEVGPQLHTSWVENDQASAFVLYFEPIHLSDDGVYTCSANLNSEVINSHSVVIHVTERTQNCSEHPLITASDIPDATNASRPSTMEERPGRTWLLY
Procedure: (§1) The binding affinity and kinetics of the BTLA agonist antibodies of the present invention (22B3, 23C8, and 25F7) to BTLA are measured by surface plasmon resonance using Biacore® 3000 (GE Healthcare). […] The experiments are carried out at 25° C. in HBS-EP buffer (GE Healthcare BR100669; 10 mM HEPES, 150 mM NaCl, 3 mM EDTA, 0.05% surfactant P20, pH 7.4). For each cycle, 250 μL antibody sample is flowed through flow cell 1 and 2 at 50 μ1/min, and then dissociated for 10 minutes. The chip surface is regenerated with 5 μL injection of glycine buffer at pH 1.5 at […] flow rate. The data are fit to a 1:1 Langmiur binding model to derive kₒₙ, k_{off,} and to calculate KD. Data shown below are the average of three experiments for human, cyno, rat and murine for 22B3.

[3] = biological target: T2, murine (C57BL6) BTLA protein (immobilised on the Biacore chip) (mouse (C57BL6), UniProt Q7TSA3 30-183, limits assumed); test: as above
T2 construct: also called Mouse C57BL6 BTLA
T2 chain: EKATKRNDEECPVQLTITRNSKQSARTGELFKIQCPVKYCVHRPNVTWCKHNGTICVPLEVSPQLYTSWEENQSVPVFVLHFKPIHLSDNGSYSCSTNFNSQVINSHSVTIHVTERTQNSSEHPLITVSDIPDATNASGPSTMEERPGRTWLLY
Procedure: as §1

[4] = biological target: T3, human BTLA protein (immobilised on the Biacore chip) (human, UniProt Q7Z6A9 31-150, limits assumed); test: as above
T3 construct: also called B and T Lymphocyte Attenuator; CD272
T3 sequence: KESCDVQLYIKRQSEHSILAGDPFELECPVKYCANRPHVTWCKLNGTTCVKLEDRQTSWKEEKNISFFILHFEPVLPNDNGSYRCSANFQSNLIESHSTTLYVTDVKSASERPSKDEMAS
Procedure: as §1

[5] = biological target: T4, murine (Balbc) BTLA protein (immobilised on the Biacore chip) (mouse (Balbc), UniProt Q7TSA3 30-183, limits assumed); test: as above
T4 construct: also called Mouse Balbc BTLA
T4 chain: T2 chain with P12E, T16N, T18K, Q23H, R26W, Q34E, C56W, S62G, Q73R, T114R
Procedure: as §1

[6] = biological target: T5, cynomolgus monkey BTLA protein (immobilised on the Biacore chip) (cynomolgus monkey, limits assumed); test: as above
T5 construct: also called Cyno BTLA
T5 chain: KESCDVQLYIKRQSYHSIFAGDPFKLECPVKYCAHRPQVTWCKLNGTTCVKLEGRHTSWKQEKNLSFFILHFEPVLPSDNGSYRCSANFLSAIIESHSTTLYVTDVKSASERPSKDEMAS
Procedure: as §1

[7] = biological target: T6, mouse BTLA on splenocytes of C57BL6 mice (mouse (C57BL6), UniProt Q7TSA3 30-306); test: flow cytometry (FACS) on primary cells
T6 construct: Endogenous BTLA on primary cells; also called mouse BTLA-expressing cells
T6 sequence: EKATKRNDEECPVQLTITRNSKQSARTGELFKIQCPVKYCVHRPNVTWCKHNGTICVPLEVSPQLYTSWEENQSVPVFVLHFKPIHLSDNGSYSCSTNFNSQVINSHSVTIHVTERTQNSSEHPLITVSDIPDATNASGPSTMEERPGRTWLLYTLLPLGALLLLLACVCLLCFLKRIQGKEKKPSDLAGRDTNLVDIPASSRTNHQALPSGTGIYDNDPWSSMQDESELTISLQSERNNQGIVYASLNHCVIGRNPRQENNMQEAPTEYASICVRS
Procedure: (§2) Isolated primary cells are quantified using a Countess cell counter, and resuspended at 2×10⁶ cells per ml in FACS buffer. Flow cytometry experiments is performed the same day as cell isolation by plating 50 μl (˜0.1×10⁶) cells into a 96 well plate (Greiner #650101). Non-specific antibody binding is prevented by adding 1 μl Fc block (for example, from BD #553142) for 15 minutes at 4 ° C. without washing.
(§3) BTLA antibody binding is tested at various concentrations, by serial dilution in FACS buffer. For example, a purified antibody and controls starting at different concentrations are first diluted to 30 μg/mL and serial 1:3 dilutions of the starting material is performed for a total of 10 titrations (plus untreated control). Antibody titrations are incubated with cells for 20 minutes at 4° C., and washed with FACS buffer prior to stain. Cells are stained using fluorochrome-conjugated antibodies to identify specific cell types (eg. CD19 B cells, CD4 T cells or CD8 T cells) or using a secondary antibody to identify the presence or absence of antibody binding to that subset. Staining is performed for 20 minutes at 4° C. and washed 3 times with FACS buffer prior to analysis on a flow cytometer. Results are analyzed using standard FACS analysis software (eg. FACSDiva) and reported as mean fluorescent intensity of the secondary antibody for each titration. A positive result, which indicates binding, is determined by mean fluorescent intensity staining above background.

[8] = biological target: T7, cynomolgus monkey BTLA on cyno PBMCs (cynomolgus monkey, UniProt Q7Z6A9 31-289 (human entry)); test: flow cytometry (FACS) on primary cells
T7 construct: Endogenous BTLA on primary cells; also called cynomolgus monkey BTLA-expressing cells
T7 chain: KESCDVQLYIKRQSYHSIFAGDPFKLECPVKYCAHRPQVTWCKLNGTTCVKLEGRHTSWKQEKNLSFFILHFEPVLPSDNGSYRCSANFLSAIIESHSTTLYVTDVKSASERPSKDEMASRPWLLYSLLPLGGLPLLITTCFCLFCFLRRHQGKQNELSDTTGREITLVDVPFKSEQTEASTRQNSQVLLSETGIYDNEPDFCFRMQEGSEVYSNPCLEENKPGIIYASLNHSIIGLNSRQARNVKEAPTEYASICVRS
Procedure: as §2, §3

[9] = biological target: T2, murine (C57BL6) BTLA protein …; test: SPR (Biacore 3000), BTLA amine-coupled to the chip, antibody flowed
Procedure: as §1

[10] = biological target: T4, murine (Balbc) BTLA protein …; test: as above
Procedure: as §1

B1: Antibody 22B3 (antibody, human IgG4 S228P, kappa, F234A L235A, V domains shown)
VH: QVQLVQSGAEVKKPGASVKVSCKASGFSLSSYGVSWVRQAPGQGLEWMGAISYDGITYYASWAKSRVTMTRDTSTSTVYMELSSLRSEDTAVYYCARGDYYDDYVYVYALDIWGQGTLVTVSS
VL: EIVLTQSPGTLSLSPGERATLSCQASQSISTALAWYQQKPGQAPRLLIYAASTLASGIPDRFSGSGSGTDFTLTISRLEPEDFAVYYCQQGYSSSNLDNVFGGGTKVEIKR
notes: also called humanized 22B3; BTLA agonist antibody 22B3
Question: Which “IC50 of inhibition of human primary B cell proliferation ([3H]-thymidine)” value [1] does the source give for B1 here?
Answer: 0.32 nM

Question: What about the “IC50 of inhibition of human primary B cell proliferation ([3H]-thymidine), similar experiment beside Mab8D5” value [1] of the same binder?
Answer: 0.32 nM

Question: What about the “fold increase in tyrosine phosphorylation of BTLA over background compared to negative control (Ramos B cell line, MSD)” value [1] of the same binder?
Answer: 2.41 fold

Question: And the Kd [2]?
Answer: 24.1 nM

Question: And the koff [2]?
Answer: 0.0462 s⁻¹

Question: What about the kon [2] of the same binder?
Answer: 2.1e+06 M⁻¹ s⁻¹

Question: What about the Kd [3] of the same binder?
Answer: 147 nM

Question: And the koff [3]?
Answer: 0.265 s⁻¹

Question: And the kon [3]?
Answer: 1.89e+06 M⁻¹ s⁻¹

Question: And the Kd [4]?
Answer: 0.365 nM

Question: And the koff [4]?
Answer: 0.00219 s⁻¹

Question: What about the kon [4] of the same binder?
Answer: 5.87e+06 M⁻¹ s⁻¹

Question: What about the Kd [5] of the same binder?
Answer: 32.5 nM

Question: And the koff [5]?
Answer: 0.0858 s⁻¹

Question: What about the kon [5] of the same binder?
Answer: 2.6e+06 M⁻¹ s⁻¹

Question: What about the Kd [6] of the same binder?
Answer: 0.27 nM

Question: What about the koff [6] of the same binder?
Answer: 0.000647 s⁻¹

Question: And the kon [6]?
Answer: 2.45e+06 M⁻¹ s⁻¹

Question: Does B1 bind [7]?
Answer: binds

Question: Does B1 bind [8]?
Answer: binds

B2: Antibody 25F7 (antibody, human IgG4 S228P, kappa, F234A L235A, V domains shown)
VH: QVQLVQSGAEVKKPGASVKVSCKASGFSLSTYAMNWVRQAPGQGLEWMGIISDDGTTYYATWAKGRVTMTRDTSTSTVYMELSSLRSEDTAVYYCARDAGAGGVQDYLTLWGQGTLVTVSS
VL: DIVMTQSPDSLAVSLGERATINCQASENIYNFLAWYQQKPGQPPKLLIYSASTLASGVPDRFSGSGSGTDFTLTISSLQAEDVAVYYCQQGSSNSNIDNPFGGGTKVEIKR
notes: also called BTLA agonist antibody 25F7
Question: For B2, which “IC50 of inhibition of human primary B cell proliferation ([3H]-thymidine)” value [1] is on record?
Answer: 0.17 nM

Question: And the “fold increase in tyrosine phosphorylation of BTLA over background compared to negative control (Ramos B cell line, MSD)” value [1]?
Answer: 1.47 fold

Question: What about the Kd [3] of the same binder?
Answer: 4.63 nM

Question: And the koff [3]?
Answer: 0.00035 s⁻¹

Question: And the kon [3]?
Answer: 77000 M⁻¹ s⁻¹

Question: And the Kd [4]?
Answer: 206 nM

Question: And the koff [4]?
Answer: 0.0142 s⁻¹

Question: And the kon [4]?
Answer: 68600 M⁻¹ s⁻¹

Question: Does B2 bind [7]?
Answer: binds

Question: Does B2 bind [8]?
Answer: binds

B3: Antibody 23C8 (antibody, human IgG4 S228P, kappa, F234A L235A, V domains shown)
VH: EVQLVESGGGLVQPGGSLRLSCAASGFDISKYNIQWVRQAPGKGLEWVGFINYGGSAYYASRAKGRFTISRDDSKNSLYLQMNSLKTEDTAVYYCARGLSNSDLWGQGTLVTVSS
VL: DIQMTQSPSSLSASVGDRVTITCQASQSISSWLSWYQQKPGKAPKLLIYRASTLASGVPSRFSGSGSGTDFTFTISSLQPEDIATYYCQSTYGGVVGSTSDDNPFGGGTKVEIKR
notes: also called BTLA agonist antibody 23C8
Question: B3 was tested. Which “IC50 of inhibition of human primary B cell proliferation ([3H]-thymidine)” value [1] did it give?
Answer: 0.14 nM

Question: Does B3 bind [9]?
Answer: no binding

Question: Does B3 bind [10]?
Answer: no binding

Question: What about the Kd [4] of the same binder?
Answer: 1.93 nM

Question: And the koff [4]?
Answer: 0.000293 s⁻¹

Question: And the kon [4]?
Answer: 159000 M⁻¹ s⁻¹

Question: What about the Kd [6] of the same binder?
Answer: 35.4 nM

Question: What about the koff [6] of the same binder?
Answer: 0.00309 s⁻¹

Question: And the kon [6]?
Answer: 87100 M⁻¹ s⁻¹

Question: Does B3 bind [8]?
Answer: binds
